Key:
[1] = system: PkKKT2a central domain (551-679) (Perkinsela sp. CCAP 1560/4); experiment: fluorescence anisotropy; settings: fluorescein (6-FAMK) in place of T37 of forward strand; 25 mM Hepes pH 7.5, 50 mM NaCl, 1 mM TCEP; FA: 1 nM FAM-dsDNA, 20 min RT, read at 25°C; EMSA: 200 nM dsDNA, 0.78-30 µM protein, 30 min RT, native PAGE at 4°C
[2] = system: designed zinc finger (Jantz and Berg, 2010) (synthetic construct); experiment: fluorescence anisotropy; settings: fluorescein (6-FAMK) in place of T9 of reverse strand; 25 mM Hepes pH 7.5, 50 mM NaCl, 1 mM TCEP; FA: 1 nM FAM-dsDNA, 20 min RT, read at 25°C; EMSA: 200 nM dsDNA, 0.78-30 µM protein, 30 min RT, native PAGE at 4°C

Sequence	Kd [1] [nM]	Kd [2] [nM]
AGGTAACTAGAAGAATTGTAATATTCTAAATGTTGATCCATTTGAATCAT (double strand) [50 mer 26% GC FAM (BA2216)]	500	–
CAATATGTAAGGTGTTTTGGTGTAAAACACGCATTCTTGCATAACATGCA (double strand) [50 mer CEN FAM (BA1674)]	500	–
CGATCGTTGAGGCAGAACCTGATCA (double strand) [designed DNA FAM (BA3083)]	–	8
CGCAGATCCGCGGGGCCCGTGCCGACGCGCGGGCATTGTCCGTGAGGTGA (double strand) [50 mer 74% GC FAM (BA2218)]	500	–

Reference: PMC8178753
